Laboratory results as given in the nanobody polyreactivity screen of Harvey et al. (2022).

experiment: yeast display, Sf9 membrane polyspecificity reagent, FACS + sequencing; frameworks hold sequencing errors
Summary of the method: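 Nanobodies came from a synthetic yeast display library in Saccharomyces cerevisiae BJ5465, induced with galactose for 36–48 hours and stained for 1 hour at 4 °C with 10% biotinylated, detergent-solubilized Sf9 membrane reagent. Cells were enriched on streptavidin microbeads and then FACS-sorted, with low and high (top ~1%) gates set on anti-HA fluorescence for expression and streptavidin fluorescence for reagent binding. Each polyreactivity label reflects the gate a clone came from. Genes were amplified by colony PCR, sequenced by MiSeq 2 × 250 and filtered by CDR length.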

| Sequence | polyreactivity (PSR sort gate) |
| --- | --- |
| QVQLVESGGGLVQAGGSLRLSCAASGRIFRRYAMGWYRQAPGKEREFVAAITWSGSSTYYADSVKGRFTISRDNAKNTVYLQMNSLKPEDTAVYYCAARHYAVRRSRYPGKLGYYWGQGTQVTVSS | high polyreactivity |
| QVQLVESGGGLVQAGGSLRLSCAASGFTIYWYAMGWYRQAPGKERELVAAITRSGSSTYYADSVKGRFTISRDNAKNTVYVQMNSLKPEDTAVYYSAALPYTPYYDAYDYWGQGTQVTVSS | high polyreactivity |
| QVQLVESGGGLVQAGGSLRLICAASGRIFGLYAMGWYRQAPGKERELVAGITYSGGTTYYADSVKGRFPISRDNAKNTVYLQMNSLKPEDTAVYYCNKRWYYQYGQSHVRLYDYWGQGTQVTVSS | high polyreactivity |
| QVQLVESGGGLVQAGGSLRLSCAASGGIFNYYAMGWYRQAPGKERELVAAISASGGSTYYADSVKGRFTISRDNAKNTVYLQMNSLKPEDTAVYYCAAGLPYGYGYDYWGQGTQVTVSS | low polyreactivity |
| QVQLVESGGGLVQPGGSLRLSCAASGNTFANYAMGWYRQAPGKERELVAAITSNGGSTYYADSVKGRFTISRDNAKNTVFLQMNSLKPEDTAVYYCAADAAYYSGYDYWGQGTQVTVSS | low polyreactivity |
| QFQLVESGGGLVQAGGSLRLSCAASGLTIYSYSMGWYRQAPGKERELVAAITWRGGSTYYADSVKGRFTISRDHAKNTDYLQMNSVKPEDTALYYCAADPGPYGYYYWGQGNQVTVSS | low polyreactivity |
| QVQLVESGGGLVQAGGSLRLSCDASGSIFTPYAMGWYRQAPGKERELVAAINWNGGRTYYADSVKGRFTISRDNAKNRVYLQMNCLKPEDTAVYYCFLYYWANYPYNYWGQGTQVNVSS | low polyreactivity |
| QVQLVESGGGLVQAGGSLRLSCAASGRISIWYAMGWYRQAPGKERELVARISTSSGRTYYADSVKGRFTISRDNAKNTVYLQMNSLKPEDTAVYYCNAAGYRIYFSTRYDYWGQGTQVTVSS | high polyreactivity |
| QVQLVESWGGLVQAGGSLRLSCAASGITFLRNTMGWYRQAPGKERELVAAISRGGSTYYADSVKGRFTISRDNAKNTVFLQMKSLKPEDTAVYYCNAPSYVQATDYDYWGQGTQVTVSS | high polyreactivity |
| QVQLVESGGGLVQAGGSLRLSCAASGLIFYGNAMGWYRQSPGKDRELVAAISRRGGRTYYADSVKGRFTISRDNAENTVYLQMNSLKPEDTAVYYCSAQYSYPYYKVTLYYWGQGTQVTVSS | high polyreactivity |
| QVQLVESGGGLVQAGGSLRLSCAASGSTFPGYAMGWYRQAPGKERELVAAISTSGGRTYYADSVKGRFTISRDNAKNTVYLQMNSLKPEDTAVYYCAADASTWYTEEYWGQGTQVTVSS | low polyreactivity |
| QVQLVESGGGLVQAGGSLRLSCAASGSIFVRYAMGWYRQAPGKERELVASIRSRGDSTYYADSVKGRFTISRDNAKNTVYLQMNSLKPEDTAVYYCAVQRSYVGPRQYNYWGQGTQVTVSS | high polyreactivity |
| QVHLVESGGRLVKAGGSLRLSCPASGYITTKYAMGWYRQAPGKEMELVAAIRYSGTSTYYADSVKGRFTISRDNATNTVYLQMNSLKPEDTAVYYCNTRRYVRTTKYDYWGQGTQVTVSS | high polyreactivity |
| QVQLVESGGGLVQAGGSLRLSCAASGFIFGYYAMGWYRQAPGKERELVAAISGDAGRTYYADSVKGRFTISRDNAKNTVYLQMNSLKPEDTAVYYCADADTYKMDYWGQGTQVTVSS | low polyreactivity |
| EEELVESGGGLVQAGGSSLRLSCAASGFIFVSNAMGWYRQAPGKERELVASIRWSDGSTFDADSVKGRFTNSRDNAKNTVYLQMNSLKPEDTAVYYCNAVYEHRRVGWVTIDYGYWGQGTQVTVSA | low polyreactivity |
| QVQLVESGGGLDQAGGSRRLSGAASGSTFHGYDKGWYIQAPGKERELVAAITSSGDDTYYADSVKGRFTISRDNAKNTVYLKRNSLKPEDTAVYYCDAEYTEGYTHDYWGQGTKVTVSS | low polyreactivity |
| QVQLVESGGGLVQAGGSLRLSCAASGRTFYPNTMGWYRQAPGKERELVAAIRSSGGSTYYADSVKGRFTISRDNAKKTVYLQMNSLKPEDTAVYYCAAKGRSSYFYWFDYWGQGTQVTVSS | high polyreactivity |
| QVHLVESGGGLVQAGGSLRLSSAPSGSTFDAYDMGWYRQAPGKESELVAAITSGGSTNYADSVKGRFTISRDNAKNTVYLQMNSLKPEDTAVYYCAASPYRGFVSRYGYWGQGTQVTLSS | low polyreactivity |
| QVQVVESGGGLVHAGGSLRLSCAASGITCVWNDMGWYRQPPGKEREFVAGITYRSGRTYYADSVKGRFTISRDNAKNTVYLQMNSLKPEDTAGYYCATTPRYTTYNYWGQGTQVTVSS | high polyreactivity |
| QVQLVESGGGLVQAGGSLRLSCAASGSTGWYDRGWYRQAPGKERELVASISSGDSTNYADSVKGRFTISRDNAKNTVYLQMNSLKPEDTAVYYCAADFNVGFVWGDDYDYWGQGTQVTVSS | low polyreactivity |
| QVQLVESGGGLVQAGGSLRLSCAASGRTFPCYAMGWYRQAPGKEREFVAAITASGDSTYYADSVKGRFTISRDNAKNTVYLQMNSLKPEDTAVYYCAADLPVWYVTRYDYWGQGTQVTVSS | low polyreactivity |
| QLQLVESGGGLVQAGGSLRLSCAASGRTFVYNVMGWYRQAPGKERELVAAISSGGSTNYADSVKGRFTNSRDNAKNTVYLQMNRLKPEDSAVYYCNAGTLNYRYRWGHYYDSWGQGTQVTVSS | low polyreactivity |

| Sequence | polyreactivity (PSR sort gate) |
| --- | --- |
| QVQLVESGGGLVQAGGSLRLSCAASGRTFGNNAMGWYRQAPGKEREFVAAITSRGGSTYYADSVKGRFTISRDNAKNTVYLQINSLKPEDTAVYYCNREYQLPSQRTEHYYWGQGTQVTVSS | low polyreactivity |
| QVQLVESGGGLVQAGGSLRLSCAASGIIFQTYAMGWYRQAPGKERELVAAISRTGGSTYYADSVKGRFTISRDNAKITVYVQMHSLKPEDTAVYSCAAPRFAAPLRIGYVWGQVTQVTVSS | high polyreactivity |
| QVQLQETRGGLDQAGDSLRLRCAASVSTLPVYTIARYRKAAVKEREFVAANTYTGGRTYYSDSVKGRFTISRDNAKNSVYLQMKSLKPDDTAVYYCAAEYGTYFVRYFAGASYRYGYWGQGTQVTVSS | low polyreactivity |
| QVQLVESGGGLVQAGGSLRLSCAASGITCTFNTMGWYRQAPGKERELVAGITNGGSTYYADSVKGRFTISRDNAKNTVYLQMNSLKPEDTAVYYCNAQRRLRYGWFGPYDYWGQGTQVTVSS | low polyreactivity |
| QVQLVESGGGLVQAGGSLRLSCAASGFTFAFYTLGWYIQATGKETELVASISWRSGSTYYADSVKGRFTISRDNAKNSVYLQMNSLNPDDTAVYYCAADSAVSWFFYCGQGTQVTVSS | high polyreactivity |
| QVQLVESGGGLVQAGGSLRLSCAASGLIFAGYAMGWYRQAPGKERELVAAITWRGGRTYADSVKGRFTISRDNAKNTVYLQMNSLKPEDTAVYYCAVRRWGTSFVEDDYWGQGTQVTVSS | low polyreactivity |
| QVQLVESGGGLVQAGGSLRLSCAASGSTFSSYAMGWYRQAPGKEREFVAAINTDGGSTYYADSVKGRFTISRDNAKNTVYLQMNSLKPEDTAVYYCAARYYWPWYSSYDYWGQGTQVTVSS | low polyreactivity |
| QVQLVESGGGLVQAGGSLRLTCAASGRTFTRYAMGWYRQAPGKERELVAAISGGGGSTYYADSVKGRFTISRDNAKNTVYLQMNSLKPEDTAVYYCNAAARGSSFDYWGQGTQVTVSS | low polyreactivity |
| QVQLVESGGGLVQAGGSLRLSSGAYGITFWTYAMGWYRQAHGKERELVAAISNGGSTSYADSVKGRFTISRDNAKNTVYLQINILKPEDTAVYYCASDWATHRPWYWCVYYWGQGTQVTVSS | low polyreactivity |
| QVQLVESGGGLVQAGGSLRLSCAASGSIFNVNTMGWYRQAPGKERELVAAISYSGGSTYYADSVKGRFTISRDTAKNTVYLQMNSLKPEDTAVYYCAAESYIEYYLKYDYWGQGTQVTVSS | low polyreactivity |
| QVQLVESGGGLVQAGGSLRLSCAASGSIFDFYSMGWYRQAPGKERELVAAISRGGSTYYADSVKGRFTISRDNAKNTVYFLMNSLKPEDTGVDYCAARDGVLVSWLWFWCDSPYGYWGQGTQGTVSS | low polyreactivity |
| QVQLVESGGGLVQAGGSLRLSCAASGSIFTHNAMGSYRQAPGKERELVAAISSGGSTNYADSVKGRFTISRDNAMNTVYLQMNSLKPDDTAVYYCAISIDGWYWRRRRYDYWGQGTQVTVSS | low polyreactivity |
| QVQLVESGGGLVQAGGSLRLSCAASGRIFAGYTMGWYRQAPGKERELVAAISGSGGRTYYADSVKGRFTISRDIAKNTVYLQMNSLKPEDTAVYYCAAYRSRTYGYWGQGTQVTVSS | high polyreactivity |
| QVQLQESVVCLVQALGSLRLSCAASGNISDYYDMGWYGHAPGKERKFVAGIDFGAITNYADSVKGRFTISRDNAKNTEYMQMSSLKPEDTAVYYCAAGVYDWYAYDYWGQGTQVTVSS | high polyreactivity |
| QVQLEESGGGLVQAGGSLRLSCAASGSTFWVYVMGWYRQAPGKERELVATIRWSTSSTYADSVKGRFTISRDNAKNTVYLQMNILKPEDTAVYYCNTYPRGNWGNFVEQDYDYWGQGTQVTVSS | low polyreactivity |
| QVQLVESGGGLVQAGGSLRLSSAASGSIFLVNAMGWYRQAPGKERELVAAINSGGSTYYADSVKGRFTISRDNAKNTVYLQMNSLKPEDTAVYYCAADFWLKVWQDTDYDFDYWGQGTQVTVSS | low polyreactivity |
| QVQLVESGGGLVQAGGSLRLSCAASGFIFADYMGWYRQAPGKERELDASISSTGSSTYADSVKGRFTISRDNAKNTVYLQMNSLKPEDTAVYYCAATGVWYSWYEYASEYDYWGQGTQVTVSS | high polyreactivity |
| QVKLVESGGGLVQAGASLRLSVAASGNIFSVNTIGTYRQAPGKERELVAAITRRSGRTYYADSVKGRFTISRDNAKNTVFLQMNSLNPEDTAVYYCAASWRGASVIRFDYWGQGTQVTVSS | high polyreactivity |
| QVQLVESGGGLVQAGGSLRLSCASSGSTFTTNALGWYRQAPGKERELVAAISRRGGSTYYADSVKGRFRISRDNAKNTVYLQMNSLKPEDTAVYYCNAVRAEYEFDYWGQGTQVTVSS | high polyreactivity |
| QVQLVESGGGLVQAGGSLRLSCAASGSTFSTNAMGWYRQAPGKERELVASITRSGGSTYYADSVKGRFTISRDNAKNTFYLLMNSLKPEDTAVYYCNADGYYDYDYGYWGQGTQVTVSS | low polyreactivity |
| QVQLVESGGGLVQAGGSLRLTCAASGFTFRSYAMGWYRQAPGKERELVADISIRGGGTYYADSVKGRFTISRDNAKNTVYLQRNSLKPEDTAVYYCAAERYKPFLWPRYDYWGQGTQVTVSS | low polyreactivity |
